# Reference: PMC8190142, “Activation of PARP2/ARTD2 by DNA damage induces conformational changes relieving enzyme autoinhibition”
# Legend:
# [1] = target: PARP2 WGR-RD-ART (human (Homo sapiens), UniProt Q9UGN5 90-583); assay: X-ray crystallography (2.8 A); FP buffer, salt, pH and temperature not given (as in cited ref 17); crystallization: complex purified in 20 mM Hepes pH 7.5, 300 mM NaCl, 0.5 mM TCEP; crystals; details: protein: recombinant; tags: His-tag construct, TEV cleaved; chain copies: 2; blunt, 16 bp; 2 duplex copies in the biological unit
# [2] = target: T1, PARP2 FL wt (human (Homo sapiens), UniProt Q9UGN5 1-583); assay: fluorescence polarization; mean and SD of 3 listed KDs (28.05, 21.44, 26.07); FP buffer, salt, pH and temperature not given (as in cited ref 17); crystallization: complex purified in 20 mM Hepes pH 7.5, 300 mM NaCl, 0.5 mM TCEP; crystals; details: protein: recombinant; tags: His-tag construct, TEV cleaved; label: fluorescein on internal T8 of strand 2; blunt, 20 bp
# [3] = target: T2, PARP2 FL G338A (human (Homo sapiens), UniProt Q9UGN5 1-583, G338A); assay: fluorescence polarization; mean and SD of 3 listed KDs (27.96, 29.72, 25.09); FP buffer, salt, pH and temperature not given (as in cited ref 17); crystallization: complex purified in 20 mM Hepes pH 7.5, 300 mM NaCl, 0.5 mM TCEP; crystals; details: protein: recombinant; tags: His-tag construct, TEV cleaved; label: fluorescein on internal T8 of strand 2; blunt, 20 bp
# [4] = target: T3, PARP2 FL R153A (human (Homo sapiens), UniProt Q9UGN5 1-583, R153A); assay: fluorescence polarization; mean and SD of 3 listed KDs (232.6, 64.05, 161.3); FP buffer, salt, pH and temperature not given (as in cited ref 17); crystallization: complex purified in 20 mM Hepes pH 7.5, 300 mM NaCl, 0.5 mM TCEP; crystals; details: protein: recombinant; tags: His-tag construct, TEV cleaved; label: fluorescein on internal T8 of strand 2; blunt, 20 bp
# [5] = target: T4, PARP2 FL E286R (human (Homo sapiens), UniProt Q9UGN5 1-583, E286R); assay: fluorescence polarization; mean and SD of 3 listed KDs (12.72, 25.07, 16.53); FP buffer, salt, pH and temperature not given (as in cited ref 17); crystallization: complex purified in 20 mM Hepes pH 7.5, 300 mM NaCl, 0.5 mM TCEP; crystals; details: protein: recombinant; tags: His-tag construct, TEV cleaved; label: fluorescein on internal T8 of strand 2; blunt, 20 bp
# [6] = target: T5, PARP2 FL Y201F (human (Homo sapiens), UniProt Q9UGN5 1-583, Y201F); assay: fluorescence polarization; mean and SD of 3 listed KDs (93.24, 46.79, 151.2); FP buffer, salt, pH and temperature not given (as in cited ref 17); crystallization: complex purified in 20 mM Hepes pH 7.5, 300 mM NaCl, 0.5 mM TCEP; crystals; details: protein: recombinant; tags: His-tag construct, TEV cleaved; label: fluorescein on internal T8 of strand 2; blunt, 20 bp
# [7] = target: T6, PARP2 FL N129A (human (Homo sapiens), UniProt Q9UGN5 1-583, N129A); assay: fluorescence polarization; mean and SD of 3 listed KDs (58.73, 44.74, 72.15); FP buffer, salt, pH and temperature not given (as in cited ref 17); crystallization: complex purified in 20 mM Hepes pH 7.5, 300 mM NaCl, 0.5 mM TCEP; crystals; details: protein: recombinant; tags: His-tag construct, TEV cleaved; label: fluorescein on internal T8 of strand 2; blunt, 20 bp
# [8] = target: T7, PARP2 FL E286A (human (Homo sapiens), UniProt Q9UGN5 1-583, E286A); assay: fluorescence polarization; mean and SD of 3 listed KDs (22.43, 26.3, 23.94); FP buffer, salt, pH and temperature not given (as in cited ref 17); crystallization: complex purified in 20 mM Hepes pH 7.5, 300 mM NaCl, 0.5 mM TCEP; crystals; details: protein: recombinant; tags: His-tag construct, TEV cleaved; label: fluorescein on internal T8 of strand 2; blunt, 20 bp
# [9] = target: T6, PARP2 FL N129A; assay: fluorescence polarization; mean and SD of 3 listed KDs (14.36, 8.278, 5.785); FP buffer, salt, pH and temperature not given (as in cited ref 17); crystallization: complex purified in 20 mM Hepes pH 7.5, 300 mM NaCl, 0.5 mM TCEP; crystals; details: protein: recombinant; tags: His-tag construct, TEV cleaved; label: fluorescein on internal T10; dumbbell of two hairpins (TTTT loops) with one nick
# [10] = target: T4, PARP2 FL E286R; assay: fluorescence polarization; mean and SD of 3 listed KDs (18.12, 7.571, 5.497); FP buffer, salt, pH and temperature not given (as in cited ref 17); crystallization: complex purified in 20 mM Hepes pH 7.5, 300 mM NaCl, 0.5 mM TCEP; crystals; details: protein: recombinant; tags: His-tag construct, TEV cleaved; label: fluorescein on internal T10; dumbbell of two hairpins (TTTT loops) with one nick
# [11] = target: T3, PARP2 FL R153A; assay: fluorescence polarization; mean and SD of 3 listed KDs (20.13, 10.37, 8.203); FP buffer, salt, pH and temperature not given (as in cited ref 17); crystallization: complex purified in 20 mM Hepes pH 7.5, 300 mM NaCl, 0.5 mM TCEP; crystals; details: protein: recombinant; tags: His-tag construct, TEV cleaved; label: fluorescein on internal T10; dumbbell of two hairpins (TTTT loops) with one nick
# [12] = target: T7, PARP2 FL E286A; assay: fluorescence polarization; mean and SD of 3 listed KDs (10.42, 7.271, 6.234); FP buffer, salt, pH and temperature not given (as in cited ref 17); crystallization: complex purified in 20 mM Hepes pH 7.5, 300 mM NaCl, 0.5 mM TCEP; crystals; details: protein: recombinant; tags: His-tag construct, TEV cleaved; label: fluorescein on internal T10; dumbbell of two hairpins (TTTT loops) with one nick
# [13] = target: T1, PARP2 FL wt; assay: fluorescence polarization; mean and SD of 3 listed KDs (10.74, 7.933, 8.182); FP buffer, salt, pH and temperature not given (as in cited ref 17); crystallization: complex purified in 20 mM Hepes pH 7.5, 300 mM NaCl, 0.5 mM TCEP; crystals; details: protein: recombinant; tags: His-tag construct, TEV cleaved; label: fluorescein on internal T10; dumbbell of two hairpins (TTTT loops) with one nick
# [14] = target: T5, PARP2 FL Y201F; assay: fluorescence polarization; mean and SD of 3 listed KDs (46.26, 27.47, 48.04); FP buffer, salt, pH and temperature not given (as in cited ref 17); crystallization: complex purified in 20 mM Hepes pH 7.5, 300 mM NaCl, 0.5 mM TCEP; crystals; details: protein: recombinant; tags: His-tag construct, TEV cleaved; label: fluorescein on internal T10; dumbbell of two hairpins (TTTT loops) with one nick
# [15] = target: T2, PARP2 FL G338A; assay: fluorescence polarization; mean and SD of 3 listed KDs (10.62, 9.907, 6.489); FP buffer, salt, pH and temperature not given (as in cited ref 17); crystallization: complex purified in 20 mM Hepes pH 7.5, 300 mM NaCl, 0.5 mM TCEP; crystals; details: protein: recombinant; tags: His-tag construct, TEV cleaved; label: fluorescein on internal T10; dumbbell of two hairpins (TTTT loops) with one nick
# T5 sequence (Q9UGN5 whole entry Y201F): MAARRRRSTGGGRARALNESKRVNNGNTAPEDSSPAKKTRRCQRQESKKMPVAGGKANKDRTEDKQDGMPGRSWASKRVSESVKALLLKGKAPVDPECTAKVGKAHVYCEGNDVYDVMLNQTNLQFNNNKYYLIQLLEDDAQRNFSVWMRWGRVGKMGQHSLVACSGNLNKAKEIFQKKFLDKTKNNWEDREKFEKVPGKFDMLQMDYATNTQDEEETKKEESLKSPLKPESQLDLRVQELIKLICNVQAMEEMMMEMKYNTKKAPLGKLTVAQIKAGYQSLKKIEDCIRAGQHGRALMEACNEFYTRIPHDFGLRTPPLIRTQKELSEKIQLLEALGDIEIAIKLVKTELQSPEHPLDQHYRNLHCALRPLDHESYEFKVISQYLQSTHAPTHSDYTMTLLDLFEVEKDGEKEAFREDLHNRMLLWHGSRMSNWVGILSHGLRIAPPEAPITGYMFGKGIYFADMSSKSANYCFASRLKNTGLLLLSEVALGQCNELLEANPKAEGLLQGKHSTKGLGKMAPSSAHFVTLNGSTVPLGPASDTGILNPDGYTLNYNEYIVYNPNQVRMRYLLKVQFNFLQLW
# T3 sequence (Q9UGN5 whole entry R153A): as the sequence (Q9UGN5 whole entry Y201F) above, with R153A, F201Y counted along it
# T4 sequence (Q9UGN5 whole entry E286R): as the sequence (Q9UGN5 whole entry Y201F) above, with F201Y, E286R counted along it
# T6 sequence (Q9UGN5 whole entry N129A): as the sequence (Q9UGN5 whole entry Y201F) above, with N129A, F201Y counted along it
# T2 sequence (Q9UGN5 whole entry G338A): as the sequence (Q9UGN5 whole entry Y201F) above, with F201Y, G338A counted along it
# T7 sequence (Q9UGN5 whole entry E286A): as the sequence (Q9UGN5 whole entry Y201F) above, with F201Y, E286A counted along it
# T1 sequence (Q9UGN5 whole entry): as the sequence (Q9UGN5 whole entry Y201F) above, with F201Y counted along it
# Sequence of PARP2 WGR-RD-ART (Q9UGN5 90-583): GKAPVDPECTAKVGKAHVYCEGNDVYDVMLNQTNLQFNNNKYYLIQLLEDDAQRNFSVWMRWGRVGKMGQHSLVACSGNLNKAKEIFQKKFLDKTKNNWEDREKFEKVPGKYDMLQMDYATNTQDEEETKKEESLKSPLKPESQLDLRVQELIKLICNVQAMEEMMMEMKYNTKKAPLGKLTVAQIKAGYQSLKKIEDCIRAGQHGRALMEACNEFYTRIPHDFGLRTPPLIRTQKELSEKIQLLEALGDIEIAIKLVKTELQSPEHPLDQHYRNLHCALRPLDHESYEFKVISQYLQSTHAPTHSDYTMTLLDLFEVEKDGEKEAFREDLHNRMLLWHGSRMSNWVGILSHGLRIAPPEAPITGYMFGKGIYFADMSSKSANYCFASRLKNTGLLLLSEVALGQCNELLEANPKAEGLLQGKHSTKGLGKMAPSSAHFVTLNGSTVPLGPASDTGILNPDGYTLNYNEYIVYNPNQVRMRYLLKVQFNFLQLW
binder,measurement,setting,value
"DNA-1 (dsDNA, 5'-phosphate on strand 1) DNA 1: GACGACCCGGAGCACA DNA 2: TGTGCTCCGGGTCGTC",binding result,[1],binds
"DNA-9 dsDNA (dsDNA, 5'-phosphate on strand 1) DNA 1: GACGCAACCCGGAGAACACA DNA 2: TGTGTTCTCCGGGTTGCGTC",Kd,[2],25.2 ± 3.39 nM
same,Kd,[3],27.6 ± 2.34 nM
same,Kd,[4],153 ± 84.6 nM
same,Kd,[5],18.1 ± 6.32 nM
same,Kd,[6],97.1 ± 52.3 nM
same,Kd,[7],58.5 ± 13.7 nM
same,Kd,[8],24.2 ± 1.96 nM
"GGAAGTCTTTTGACTTCCTCGAAGCTTTTGCTTCGA (structured_DNA, 5'-phosphate) [DNA-8 nicked dumbbell]",Kd,[9],9.47 ± 4.41 nM
same,Kd,[10],10.4 ± 6.77 nM
same,Kd,[11],12.9 ± 6.35 nM
same,Kd,[12],7.98 ± 2.18 nM
same,Kd,[13],8.95 ± 1.55 nM
same,Kd,[14],40.6 ± 11.4 nM
same,Kd,[15],9.01 ± 2.21 nM
